{"source": "patent US20150018409A1", "about": "“CHIMERIC POLYPEPTIDES AND THEIR USE” (ADRIACELL S.P.A., priority 2003, published 2015)", "key": {"[1]": {"tested_on": "p53 positive or negative cells", "experiment": "Cell cycle response to DSB's by FACS in p53 positive or negative cells", "type": "cell-based", "method": "(§1) The cell cycle response to DSB's induced by […] treatment were analysed in p53 positive or negative cells. […] Incubation for 36 hours of the cell lines mutated for ATM (AT-5) with […] results in a transient retardation of the cell cycle, as was determined by a DNA content FACS analysis. […] A single addition of […] for 60 minutes to the AT-5 cells was sufficient to induce cell cycle stop after 24 hours (FIG. 8A) and finally leads to cell death, obtained from not correctly ligated DNA, and consequently, the clonogenic activity after a single treatment with […] for 60 minutes was below 0.02% for AT-5 cells. […] In addition, the cells were incubated with adriamycin as a control."}, "[2]": {"tested_on": "MO59J (DNA-PKcs−/−) glioblastoma cells compared to MO59K", "experiment": "Colony forming assay with automatic analysis (VersaDoc)", "type": "cell-based, human", "set-up": "dose or concentration left out as unconfirmed", "conditions": "single treatment for 12 hours", "text": "Statistical analysis of the results was done and is represented as a histogram. […] An example of the colony forming assay is shown. The assay was done employing various concentrations of cells in the order of three magnitudes (from the upper to the lower rows, 1×10^4, 2×10^3, 4×10^2, 8×10). On the right B), the histograms of the results from the colony forming assay of the cell-lines MO59J compared to MO59K is shown. The assays were done as in FIG. 9 but analysed with the aid of the Versadoc 4 (BioRad) system. […]"}, "[3]": {"tested_on": "neuroblastoma cells G1-LIN", "experiment": "Apoptosis by FACS analysis of DNA content (below 2N)", "type": "cell-based", "conditions": "30 hours", "method": "FACS analysis of the DNA content stained with propidium J^− of the neuroblastoma cells G1-LIN after […] treatment (10 nM, panel C; 100 nM panel B). The treatment of the samples was done for 30 hours. As a control samples treated with SC34 were used (100 nM, panel D) or not treated (panel A). At the bottom of each panel the representative percentage of the cell cycle phase distributions obtained are indicated (G1/S/G2-M). (A) indicates apoptotic cells."}, "XR-1 (XRCC4−/−) cells": {"tested_on": "XR-1 (XRCC4−/−) cells", "conditions": "single addition of SCPVUTAT", "method": "Clonogenic assay of CHO cells that were mutated for proteins involved in the NHEJ repair-pathway treated with […]. The cell lines used are AA8 (parental line), V3 (DNA-PCCS^(−/−)), xrss5 (KU80^(−/−)) and XR-1 (XRCC4^(−/−)), HIS P1.13-11 (KU70^(−/−)) and the corresponding parental cell line CHO-K1. Various dilutions of the CHO cells containing the NHEJ mutations as indicated were treated for 24 hours with […] (25 nM, grey bars; 100 nM, black bars) or not treated (white bars); the cells were washed and then grown for 7-10 days, stained with GIEMSA and colonies were counted.\nThese cell lines were analysed in the nuclease activity assays with […] in vivo and compared to the parental cell lines as indicated. […] Seven to ten days after addition, cell growth was analysed by staining with GIEMSA-blue and quantification of diverse cell-concentrations. […] In analogy, cell growth was quantified after a single treatment with […] for 12 hours (10 nM, grey bars; 75 nM, black bars; not treated, white bars). […] The multiwell-microtiter-plates (for an example see FIG. 13A) were scanned using the VersaDOC® (BioRad) imaging system and growth was automatically quantified with the software package Quantify One® for the analysis of the microtiter-plates (microtiter-plates scanning software)."}, "[4]": {"tested_on": "DSBs in human or rodent cell lines (U2OS, HEK-293, MCF-7, HCT116, WI83, IMR90, MEF)", "experiment": "TUNEL assay for DSB induction in vivo", "type": "cell-based", "method": "[…] was assayed with terminal deoxynucleotidyl transferase (TdT) dUTP-FITC, in a TUNEL reaction (In Situ Cell Death Detection Kit, Roche Diagnostic, Mannheim Germany) which marks DSBs in vivo. The assay was done after fixation of the cells in 4% paraformaldehyde in PBS, 0.1% Triton. After the TUNEL reaction the cells are counter-stained with propidium J. The use of derivatives impaired in the nuclease activity like the construct SC34 as a negative control, allows to estimate background activities. […] This aspect makes the system described in the invention by far more efficient as compared to endonucleases induced from transcriptional units or compared to any of the other type of protein transfection like electroporation, or precipitations with calcium phosphate or libid-derivatives i.e. lipofectin."}, "[5]": {"tested_on": "AT-5 cells (mutated for ATM)", "experiment": "Colony forming assay", "type": "cell-based", "method": "(§2) FIG. 8. Induction of Cell Cycle Block and Clonogenic Activity by […] of Cells Mutated for ATM (AT-5) in Comparison to Non Mutated Cells (MRC-5). • A) Distribution of DNA content distribution during the cell cycle detected by FACS analysis of AT-5 cells after 36 hours of […] treatment (25 nM, 100 nM), or with adriamycin (0.02 μg/ml; ADRIAMYCIN), or with SC34 (100 nM), and as control from non treated cells. The histograms represent DNA content relative to the cell-numbers; the panel on the right indicates the percentage of the corresponding distributions of the various cell cycle phases as calculated with the MODFIT™ program-package. • B) Colony forming assay with cell lines mutated for ATM and induced for DNA damage by […].\nas §1"}, "[6]": {"tested_on": "MRC-5 cells (ATM positive control)", "experiment": "Colony forming assay", "type": "cell-based", "conditions": "60 minutes treatment, 25 nM or 100 nM", "method": "as §2, §1"}, "[7]": {"tested_on": "HCT116 cells (hMLH1 mutated)", "experiment": "Clonogenic assay of mismatch repair defective cells", "type": "cell-based, human", "conditions": "similar assays", "quoted_text": "These cells were plated into multiwell-microtiter-plates at different concentrations and treated with [sequence] as indicated and stained with GIEMSA-blu. The multiwell-microtiter-plates (for an example see FIG. 13A) were scanned using the VersaDOC® (BioRad) imaging system and growth was automatically quantified with the software package Quantify One® for the analysis of the microtiter-plates (microtiter-plates scanning software)."}, "V3 (DNA-PKcs−/−) cells": {"tested_on": "V3 (DNA-PKcs−/−) cells", "experiment": "Clonogenic assay of CHO cells mutated in NHEJ", "type": "cell-based, rodent", "conditions": "100 nM, 24 hours, grown 7-10 days (FIG. 9 black bar)", "quoted_text": "Clonogenic assay of CHO cells that were mutated for proteins involved in the NHEJ repair-pathway treated with [sequence]. The cell lines used are AA8 (parental line), V3 (DNA-PCCS^(−/−)), xrss5 (KU80^(−/−)) and XR-1 (XRCC4^(−/−)), HIS P1.13-11 (KU70^(−/−)) and the corresponding parental cell line CHO-K1. Various dilutions of the CHO cells containing the NHEJ mutations as indicated were treated for 24 hours with [sequence] (25 nM, grey bars; 100 nM, black bars) or not treated (white bars); the cells were washed and then grown for 7-10 days, stained with GIEMSA and colonies were counted.\nMoreover these NHEJ mutant cells were tested with [sequence] in clonogenic, colony-outgrowth assays that were assayed after a single addition of [sequence] for 12 hours at a concentration of 10 nM (grey bars) or at a concentration of 75 nM (black bars) or without protein treatment (not treated, white bars). Seven to ten days after addition, cell growth was analysed by staining with GIEMSA-blue and quantification of diverse cell-concentrations. […] The multiwell-microtiter-plates (for an example see FIG. 13A) were scanned using the VersaDOC® (BioRad) imaging system and growth was automatically quantified with the software package Quantify One® for the analysis of the microtiter-plates (microtiter-plates scanning software)."}}}
{"molecule": "SCPVUTAT: single chain PvuII endonuclease (aa 1-157, GSGG linker, aa 2-157) fused to HIV Tat peptide and six histidine tag; SEQ ID NO:2 (protein, listed as Proteus vulgaris) MSHPDLNKLLELWPHIQEYQDLALKHGINDIFQDNGGKLLQVLLITGLTVLPGREGNDAVDNAGQEYELKSINIDLTKGFSTHHHMNPVIIAKYRQVPWIFAIYRGIAIEAIYRLEPKDLEFYYDKWERKWYSDGHKDINNPKIPVKYVMEHGTKIYGSGGSHPDLNKLLELWPHIQEYQDLALKHGINDIFQDNGGKLLQVLLITGLTVLPGREGNDAVDNAGQEYELKSINIDLTKGFSTHHHMNPVIIAKYRQVPWIFAIYRGIAIEAIYRLEPKDLEFYYDKWERKWYSDGHKDINNPKIPVKYVMEHGTKIYGSYGRKKRRQRRRGGSHHHHHH", "values": [{"measurement": "cell cycle response", "setting": "[1]; cells negative for p53", "value": "do not exhibit arrest characteristics of the cell cycle"}, {"measurement": "cell cycle response", "setting": "[1]; cells positive for p53", "value": "cell cycle arrest behaviour in G1 and G2 with low S-phase values"}, {"measurement": "sensitivity in colony forming assay versus parental MO59K", "setting": "[2]", "value": "significant differential increase in sensibility"}, {"measurement": "apoptotic cells", "setting": "[3]; 10 nM", "value": 18, "unit": "%"}, {"measurement": "apoptotic cells", "setting": "[3]; 100 nM", "value": "more than 29%"}, {"measurement": "sensitivity in clonogenic assay", "setting": "XR-1 (XRCC4−/−) cells", "value": "hypersensitive to blunt end DSB's"}, {"measurement": "TUNEL positive cells", "setting": "[4]; 10 minutes after treatment, all cell types tested", "value": "90-100%"}, {"measurement": "TUNEL activity", "setting": "[4]; few minutes of treatment, concentration in culture supernatant as low as 10 nM", "value": "significant TUNEL activity in most of the cells"}, {"measurement": "colonies relative to non treated cells (100%)", "setting": "[5]; 100 nM, 60 minutes, grown 7-10 days (FIG. 8B black bar)", "value": "~0", "unit": "%"}, {"measurement": "clonogenic activity", "setting": "[5]; single treatment for 60 minutes", "value": "below 0.02%"}, {"measurement": "sensitivity in colony forming assay compared to AT-5", "setting": "[6]", "value": "less sensitive"}, {"measurement": "sensitivity in clonogenic assay", "setting": "[7]", "value": "do not show any increase in sensibility"}, {"measurement": "colonies relative to non treated cells (100%)", "setting": "V3 (DNA-PKcs−/−) cells", "value": "below 1%"}]}
